The record followed here is patent US20200199241A1 (Chugai, published 2020).

Test [1] deals with T1, human FcγRIIb (human, UniProt P31994 43-217, limits assumed).
T1 construct: also called FcγIIB
T1 sequence: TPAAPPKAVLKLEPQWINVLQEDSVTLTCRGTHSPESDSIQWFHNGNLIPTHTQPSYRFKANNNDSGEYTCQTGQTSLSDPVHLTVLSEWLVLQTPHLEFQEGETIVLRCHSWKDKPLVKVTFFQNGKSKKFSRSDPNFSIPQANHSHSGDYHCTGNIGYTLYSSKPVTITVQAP
Description: SPR (Biacore), binding amount relative to IL6R-F652/IL6R-L = 100. Background: SPR reads the build-up and loss of mass on a sensor chip optically.

The target of test [2] is T2, human FcγRIIa type R (human, UniProt P12318 36-217).
T2 construct: also called FcγRIIaR; FcγRIIa(R)
T2 chain: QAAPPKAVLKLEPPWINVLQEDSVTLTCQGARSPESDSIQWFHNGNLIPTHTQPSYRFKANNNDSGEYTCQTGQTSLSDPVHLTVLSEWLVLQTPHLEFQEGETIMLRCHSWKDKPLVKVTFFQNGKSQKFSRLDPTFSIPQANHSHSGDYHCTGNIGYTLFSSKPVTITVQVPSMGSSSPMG
The description is as above.

For test [3], the target named is T1, human FcγRIIb. Description: SPR (Biacore); KD for FcγRIIaH divided by KD for FcγRIIb of the same antibody.
Test [4] concerns the target T1, human FcγRIIb. Description: SPR (Biacore), antibody captured, FcγR as analyte.
The target of another test is T3, human FcγRIa (human, UniProt P12314 16-292, limits assumed).
T3 construct: also called CD64
T3 sequence (P12314 16-292 limits assumed): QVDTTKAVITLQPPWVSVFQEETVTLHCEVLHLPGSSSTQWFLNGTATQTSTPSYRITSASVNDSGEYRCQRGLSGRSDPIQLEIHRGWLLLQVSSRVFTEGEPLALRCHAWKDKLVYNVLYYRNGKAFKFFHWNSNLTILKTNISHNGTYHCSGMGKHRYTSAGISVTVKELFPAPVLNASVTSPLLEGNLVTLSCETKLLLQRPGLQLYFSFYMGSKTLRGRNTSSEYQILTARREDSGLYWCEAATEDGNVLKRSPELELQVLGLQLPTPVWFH
Description: SPR (Biacore), antibody captured, FcγR as analyte.

The target in test [5] is T2, human FcγRIIa type R. Description: SPR (Biacore), antibody captured, FcγR as analyte.
The target of test [6] is T1, human FcγRIIb. Put plainly: SPR (Biacore); ratio against parent IL6R-F11/IL6R-L.
In test [7] the target is T1, human FcγRIIb. Description: SPR (Biacore); KD for FcγRIIaR divided by KD for FcγRIIb of the same antibody.

Residue numbers refer to the chain shown, from its start. Numbers in names are those of the source.

B1: IL6R-PD042/IL6R-L (antibody, human IgG1)
heavy: QVQLQESGPGLVKPSETLSLTCAVSGHSISHDHAWSWVRQPPGEGLEWIGFISYSGITNYNPSLQGRVTISRDNSKNTLYLQMNSLRAEDTAVYYCARSLARTTAMDYWGEGTLVTVSSASTKGPSVFPLAPSSKSTSGGTAALGCLVKDYFPEPVTVSWNSGALTSGVHTFPAVLQSSGLYSLSSVVTVPSSSLGTQTYICNVNHKPSNTKVDKKVEPKSCDKTHTCPPCPAPEWLGGDSVFLFPPKPKDTLYISRTPEVTCVVVDVSHEDPEVKFNWYVDGVEVHNAKTKPREEQYNSTYRVVSVLTVLHQDWLNGKEYKCKVSNKALPAPIEKTISKAKGQPREPQVYTLPPSRDELTKNQVSLTCLVKGFYPSDIAVEWESNGQPENNYKTTPPVLDSDGSFFLYSKLTVDKSRWQQGNVFSCSVMHEALHYHYTQKSLSLSP
light: DIQMTQSPSSLSASVGDRVTITCRASQDISSYLNWYQQKPGKAPKLLIYYTSRLHSGVPSRFSGSGSGTDFTFTISSLQPEDIATYYCQQGNTLPYTFGQGTKVEIK
notes: Alteration introduced into IL6R-F11; also called P238D/L234W; L234W/P238D
The term Kd denotes the free concentration of one partner at which half of the binding sites on the other are occupied at equilibrium, for simple one-to-one binding. As for B1, the relative binding activity is 106 in the test with human FcγRIIb [1] and 240 with human FcγRIIa type R [2]. For the same molecule, the “KD(IIaH)/KD(IIb)” value with human FcγRIIb [3] amounted to 9.5. The values for the dissociation constant Kd with human FcγRIIb [4], with human FcγRIa and with human FcγRIIa type R [5] were 2000 nM, 63 nM and 16 µM, respectively. Besides, the “KD(IIb) of parent polypeptide/KD(IIb) of altered polypeptide” value (from here on “KD(IIb) … of altered polypeptide”) with human FcγRIIb [6] was 3.4. In the test with human FcγRIIb [7], the “KD(IIaR)/KD(IIb)” value is 8.1.

B2: IL6R-PD079/IL6R-L (antibody, human IgG1)
heavy: B1 heavy with W236L, G239A
light: B1 light
notes: Alteration introduced into IL6R-F11; also called P238D/G237A; G237A/P238D
With B2, the relative binding activity with human FcγRIIb [1] stood at 101; in the test with human FcγRIIa type R [2], 138. The “KD(IIaH)/KD(IIb)” value with human FcγRIIb [3] stood at 7. For the same molecule, the Kd with human FcγRIIb [4] was determined as 3000 nM; with human FcγRIa, 140 nM; with human FcγRIIa type R [5], 32 µM. Besides, the “KD(IIb) … of altered polypeptide” value with human FcγRIIb [6] was determined as 2.3. Further, in the test with human FcγRIIb [7], the “KD(IIaR)/KD(IIb)” value came out at 10.5.

B3: IL6R-PD087/IL6R-L (antibody, human IgG1)
heavy: B1 heavy with W236L, G239M
light: B1 light
notes: Alteration introduced into IL6R-F11; also called P238D/G237M; G237M/P238D
Regarding B3, the relative binding activity with human FcγRIIb [1] worked out at 109; in the test with human FcγRIIa type R [2] it was 196. The “KD(IIaH)/KD(IIb)” value with human FcγRIIb [3] worked out at 7. Moreover, the Kd worked out at 2900 nM with human FcγRIIb [4], 52 nM with human FcγRIa and 22 µM with human FcγRIIa type R [5]. Further, in the test with human FcγRIIb [6], the “KD(IIb) … of altered polypeptide” value is 2.4. Also, the “KD(IIaR)/KD(IIb)” value with human FcγRIIb [7] was found to be 7.7.

B4: IL6R-PD094/IL6R-L (antibody, human IgG1)
heavy: B1 heavy with W236L, G239W
light: B1 light
notes: Alteration introduced into IL6R-F11; also called P238D/G237W; G237W/P238D
On to B4, for which the relative binding activity came out at 122 with human FcγRIIb [1] and 593 in the test with human FcγRIIa type R [2]. For the same molecule, in the test with human FcγRIIb [3], the “KD(IIaH)/KD(IIb)” value was 5.2. Moreover, the Kd with human FcγRIIb [4] was 2300 nM; with human FcγRIa it was 36 nM; with human FcγRIIa type R [5], 7.2 µM. The “KD(IIb) … of altered polypeptide” value in the test with human FcγRIIb [6] was 2.9. For the same molecule, in the test with human FcγRIIb [7], the “KD(IIaR)/KD(IIb)” value was 3.1.

B5: IL6R-PD095/IL6R-L (antibody, human IgG1)
heavy: B1 heavy with W236L, G239Y
light: B1 light
notes: Alteration introduced into IL6R-F11; also called P238D/G237Y; G237Y/P238D
In the case of B5, the relative binding activity with human FcγRIIb [1] is 124; in the test with human FcγRIIa type R [2], 543. For the same molecule, in the test with human FcγRIIb [3], the “KD(IIaH)/KD(IIb)” value was found to be 6.4. Also, the Kd was 2300 nM in the test with human FcγRIIb [4], 93 nM in the test with human FcγRIa and 7.9 µM with human FcγRIIa type R [5]. For the same molecule, the “KD(IIb) … of altered polypeptide” value with human FcγRIIb [6] was determined as 2.9. The “KD(IIaR)/KD(IIb)” value with human FcγRIIb [7] is 3.4.

B6: IL6R-PD043/IL6R-L (antibody, human IgG1)
heavy: B1 heavy with W236Y
light: B1 light
notes: Alteration introduced into IL6R-F11; also called P238D/L234Y; L234Y/P238D
For the molecule B6, the relative binding activity stood at 112 in the test with human FcγRIIb [1] and 175 in the test with human FcγRIIa type R [2]. Moreover, in the test with human FcγRIIb [3], the “KD(IIaH)/KD(IIb)” value worked out at 14.4. In addition, the dissociation constant (Kd) in the test with human FcγRIIb [4] was found to be 1600 nM; in the test with human FcγRIa, 75 nM; with human FcγRIIa type R [5] it was 26 µM. Moreover, the “KD(IIb) … of altered polypeptide” value in the test with human FcγRIIb [6] was 4.2. In the test with human FcγRIIb [7], the “KD(IIaR)/KD(IIb)” value stood at 15.9.

B7: IL6R-PD097/IL6R-L (antibody, human IgG1)
heavy: B1 heavy with W236L, S241D
light: B1 light
notes: Alteration introduced into IL6R-F11; also called P238D/S239D
With B7, the relative binding activity with human FcγRIIb [1] was 139; in the test with human FcγRIIa type R [2], 844. Also, the “KD(IIaH)/KD(IIb)” value with human FcγRIIb [3] is 14. For the same molecule, the Kd amounted to 1400 nM with human FcγRIIb [4], 4.9 nM with human FcγRIa and 3.5 µM with human FcγRIIa type R [5]. Moreover, in the test with human FcγRIIb [6], the “KD(IIb) … of altered polypeptide” value came to 5. The “KD(IIaR)/KD(IIb)” value with human FcγRIIb [7] turned out to be 2.6.

B8: IL6R-PD086/IL6R-L (antibody, human IgG1)
heavy: B1 heavy with W236L, G239L
light: B1 light
notes: Alteration introduced into IL6R-F11; also called P238D/G237L; G237L/P238D
As for B8, the relative binding activity in the test with human FcγRIIb [1] is 112; in the test with human FcγRIIa type R [2] it was 268. Also, the “KD(IIaH)/KD(IIb)” value with human FcγRIIb [3] amounted to 7.1. Further, the values for the dissociation constant (Kd) with human FcγRIIb [4], with human FcγRIa and in the test with human FcγRIIa type R [5] were 2600 nM, 120 nM and 18 µM, respectively. Besides, the “KD(IIb) … of altered polypeptide” value with human FcγRIIb [6] came to 2.7. The “KD(IIaR)/KD(IIb)” value in the test with human FcγRIIb [7] turned out to be 6.9.

B9: IL6R-PD081/IL6R-L (antibody, human IgG1)
heavy: B1 heavy with W236L, G239E
light: B1 light
notes: Alteration introduced into IL6R-F11; also called P238D/G237E; G237E/P238D
Regarding B9, the relative binding activity is 101 with human FcγRIIb [1] and 117 with human FcγRIIa type R [2]. Also, the “KD(IIaH)/KD(IIb)” value with human FcγRIIb [3] came out at 7. The Kd with human FcγRIIb [4] was 3600 nM; in the test with human FcγRIa it was 340 nM; in the test with human FcγRIIa type R [5], 38 µM. Besides, the “KD(IIb) … of altered polypeptide” value with human FcγRIIb [6] came to 1.9. Besides, the “KD(IIaR)/KD(IIb)” value with human FcγRIIb [7] was 10.6.

B10: IL6R-PD082/IL6R-L (antibody, human IgG1)
heavy: B1 heavy with W236L, G239F
light: B1 light
notes: Alteration introduced into IL6R-F11; also called P238D/G237F; G237F/P238D
For the molecule B10, the relative binding activity with human FcγRIIb [1] came to 108; in the test with human FcγRIIa type R [2], 380. Further, the “KD(IIaH)/KD(IIb)” value with human FcγRIIb [3] was found to be 4.7. The equilibrium dissociation constant (Kd) in the test with human FcγRIIb [4] came out at 3400 nM; with human FcγRIa, 52 nM; with human FcγRIIa type R [5] it was 14 µM. For the same molecule, the “KD(IIb) … of altered polypeptide” value with human FcγRIIb [6] amounted to 2. The “KD(IIaR)/KD(IIb)” value in the test with human FcγRIIb [7] was found to be 4.1.
